The record followed here is US20260055172A1 (CATALYM, published 2026).

Changes are numbered by the printed parent chain. Numbers in names are those of the source.

The target in assay [1] is human complement protein C1q (human, UniProt P02745 23-245; P02746 28-253; P02747 29-245). Description: ELISA, antibody incubated on coated human GDF-15, then 10 µg/ml human C1q, detection with HRP-conjugated anti-C1q antibody. As to the method: Interaction of C1q protein and therapeutic antibody was determined in an ELISA-based approach with 10 μg/ml human C1q protein using a HRP-conjugated anti-C1q antibody for detection. Here, CTL-001 and the different isotype variants were incubated to prior coated human GDF-15 protein before C1q binding was obtained. Experiment was performed in triplicated and mean of absorption (A450 nm) was plotted against the antibody concentration.

Assay [2] has as its target T1, cynomolgus GDF-15 (cynomolgus monkey, UniProt G7PWZ3 193-308, limits assumed).
T1 construct: also called NHP GDF-15
T1 sequence (looked up): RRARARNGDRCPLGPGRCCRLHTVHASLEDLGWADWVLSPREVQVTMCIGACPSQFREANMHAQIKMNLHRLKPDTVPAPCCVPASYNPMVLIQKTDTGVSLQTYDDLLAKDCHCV
Nature of the assay: KD from PK-PD model fitted to in vivo NHP data (not a direct binding assay); in vivo KD fitted by the NHP PK-PD model, not an in vitro binding assay.

Assay [3] deals with T2, recombinant human GDF-15 (human, UniProt Q99988 195-308).
T2 sequence (looked up): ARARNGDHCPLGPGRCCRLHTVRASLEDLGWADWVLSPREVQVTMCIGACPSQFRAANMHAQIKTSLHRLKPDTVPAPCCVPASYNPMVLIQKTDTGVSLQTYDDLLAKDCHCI
Nature of the assay: cell-based or functional assay.

The next assay addresses T3, mouse GDF-15 (mouse, UniProt Q9Z0J7 189-303).
T3 construct: also called murine GDF-15
T3 sequence (looked up): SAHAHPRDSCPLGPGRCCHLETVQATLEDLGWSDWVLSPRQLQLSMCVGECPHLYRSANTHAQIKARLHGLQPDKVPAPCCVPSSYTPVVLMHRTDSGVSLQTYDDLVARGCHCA
Nature of the assay: SPR, Biacore T3000; CTL-002 on immobilized anti-human IgG Fc antibody, GDF-15 injected. As to the method: (§1) In addition, the affinity to cynomolgus rat and mouse GDF-15 was measured (see Table 2).
(§2) All experiments were performed in 10 mM HEPES buffer, pH 7.4, 150 mM NaCl, 3.4 mM EDTA and 0.05% Tween. anti-human IgG Fc specific antibody (Jackson, Order #109-005-008, Lot #111148) was covalently immobilized by EDC/NHS chemistry on Biacore CM5 Chips (GE Healthcare, Order #61144275, Lot #10236645). For kinetic characterization of the antigen-antibody interaction pulses of increasing GDF-15 concentrations (e.g. 156.3 pM, 312 pM, 625 pM, 1,250 pM) were injected at a flow rate of 30 μl/min. After each measurement cycle (8 min of association followed by 30 min of dissociation) the antibody-antigen complex was resolved by regeneration of the surface with 10 mM glycine-HCl at pH 2.0. […] For global fit analysis only, these antigen concentrations were taken into account, which allowed the analysis following the Langmuir 1:1 binding model or 1:1 binding with drifting baseline.

Assay [4] concerns the target T1, cynomolgus GDF-15. The assay is described as above. As to the method: as §1, §2
In another assay the target is T4, rat GDF-15 (rat, UniProt Q9Z0J6 189-303).
T4 sequence (looked up): T3 sequence (looked up) with A4L, Q63L, K75R, R110Q
Described as above. As to the method:
as §1, §2

Assay [5] deals with T2, recombinant human GDF-15. Described as above. As to the method:
as §1, §2

In assay [6] the target is T2, recombinant human GDF-15. Description: SPR (Biacore T3000): CTL-002 on the flow cell (per paragraph 142 an anti-human IgG Fc antibody is immobilized on the CM5 chip), human GDF-15 injected at 247, 370, 556, 833 and 1250 pM, global fit; one representative measurement of three. As to the method:
as §2

human complement protein C1q, sequence (P02745 23-245 limits assumed, chain 1 of 3): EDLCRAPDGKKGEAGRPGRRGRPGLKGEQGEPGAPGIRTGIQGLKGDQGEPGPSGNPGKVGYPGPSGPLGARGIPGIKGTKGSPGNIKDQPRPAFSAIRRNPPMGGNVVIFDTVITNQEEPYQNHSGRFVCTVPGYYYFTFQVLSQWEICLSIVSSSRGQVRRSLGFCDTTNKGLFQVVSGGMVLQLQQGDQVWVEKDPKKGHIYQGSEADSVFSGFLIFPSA
human complement protein C1q, sequence (P02746 28-253 limits assumed, chain 2 of 3): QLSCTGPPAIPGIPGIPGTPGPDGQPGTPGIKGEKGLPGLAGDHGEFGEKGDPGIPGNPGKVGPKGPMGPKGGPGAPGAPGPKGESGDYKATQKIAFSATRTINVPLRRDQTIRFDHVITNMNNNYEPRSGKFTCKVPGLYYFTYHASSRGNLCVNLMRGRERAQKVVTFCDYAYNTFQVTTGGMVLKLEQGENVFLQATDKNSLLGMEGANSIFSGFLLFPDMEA
human complement protein C1q, sequence (P02747 29-245 limits assumed, chain 3 of 3): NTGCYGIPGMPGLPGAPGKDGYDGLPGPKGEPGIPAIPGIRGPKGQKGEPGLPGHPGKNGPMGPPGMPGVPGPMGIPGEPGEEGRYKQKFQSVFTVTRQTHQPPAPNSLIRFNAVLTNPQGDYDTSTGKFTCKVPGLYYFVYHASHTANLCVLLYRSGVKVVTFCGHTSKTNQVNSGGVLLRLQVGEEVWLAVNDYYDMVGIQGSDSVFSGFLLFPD

B1: CTL-002 (antibody, human IgG4 S228P, kappa)
heavy: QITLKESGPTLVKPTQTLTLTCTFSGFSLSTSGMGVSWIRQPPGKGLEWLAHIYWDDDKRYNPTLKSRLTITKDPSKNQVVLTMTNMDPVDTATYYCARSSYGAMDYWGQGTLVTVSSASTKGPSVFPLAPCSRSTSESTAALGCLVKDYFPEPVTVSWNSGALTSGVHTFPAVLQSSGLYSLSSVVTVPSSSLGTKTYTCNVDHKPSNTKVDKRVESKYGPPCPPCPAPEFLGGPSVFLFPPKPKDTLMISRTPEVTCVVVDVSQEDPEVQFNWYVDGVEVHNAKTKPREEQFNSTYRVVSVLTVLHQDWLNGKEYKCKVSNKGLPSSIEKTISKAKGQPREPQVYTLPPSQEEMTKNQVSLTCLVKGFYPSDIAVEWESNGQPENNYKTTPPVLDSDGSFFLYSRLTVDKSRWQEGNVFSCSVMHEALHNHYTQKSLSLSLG
light: DIVLTQSPSFLSASVGDRVTITCKASQNVGTNVAWFQQKPGKSPKALIYSASYRYSGVPDRFTGSGSGTEFTLTISSLQPEDFAAYFCQQYNNFPYTFGGGTKLEIKRTVAAPSVFIFPPSDEQLKSGTASVVCLLNNFYPREAKVQWKVDNALQSGNSQESVTEQDSKDSTYSLSSTLTLSKADYEKHKVYACEVTHQGLSSPVTKSFNRGEC
notes: Humanized, hinge-stabilized IgG4 (IgG4 S228P) derived from mouse antibody B1-23; also called CTL-001 IgG4*; CTL-001 IgG4
Broadly, the Kd is a measure of binding affinity in units of concentration. Turning to B1, the binding result in assay [1] is “no binding (tested: about 25 µg/ml (leftmost visible marker))”. In addition, the Kd in the assay with cynomolgus GDF-15 [2] came out at 0.019 nM; with mouse GDF-15, 9.76 nM; with cynomolgus GDF-15 [4], 0.108 nM; with rat GDF-15 it was 0.449 nM; with recombinant human GDF-15 [5], 0.0383 nM; with recombinant human GDF-15 [6] it was 0.0338 nM. For the same molecule, the “EC50, rescue of CD8+ T-cell adhesion (flow-adhesion assay)” value with recombinant human GDF-15 [3] was roughly 0.7 µg/mL. Further, the “EC50, reversal of GDF-15 mediated inhibition of T cell adhesion (in vitro flow-adhesion assay, 50 ng/ml GDF-15)” value in the assay with recombinant human GDF-15 [3] lay in the range of 0.69 to 0.725 µg/mL. The “EC50 of CTL-002 in the flow-adhesion assay with T cells” value with recombinant human GDF-15 [3] came to 0.707 µg/mL.

B2: CTL-001 (antibody, human IgG1, kappa)
heavy: not shown
light: B1 light
notes: Humanized IgG1 with a kappa light chain; also called H1L5; B1-23-H1L5
For the molecule B2, the binding result in assay [1] is reported as “no binding (tested: about 25 µg/ml (leftmost visible marker))”.
